What was measured:
[1] = molecular target: T1, Human ANGPTL4(26-406)-FLAG-His6-Avi (human, UniProt Q9BY76 24-406, biotin on the C-terminal Avi tag in the biotinylated preparations (immobilised form in SET, ELISA and Octet)); assay: cell-based or functional assay
T1 sequence: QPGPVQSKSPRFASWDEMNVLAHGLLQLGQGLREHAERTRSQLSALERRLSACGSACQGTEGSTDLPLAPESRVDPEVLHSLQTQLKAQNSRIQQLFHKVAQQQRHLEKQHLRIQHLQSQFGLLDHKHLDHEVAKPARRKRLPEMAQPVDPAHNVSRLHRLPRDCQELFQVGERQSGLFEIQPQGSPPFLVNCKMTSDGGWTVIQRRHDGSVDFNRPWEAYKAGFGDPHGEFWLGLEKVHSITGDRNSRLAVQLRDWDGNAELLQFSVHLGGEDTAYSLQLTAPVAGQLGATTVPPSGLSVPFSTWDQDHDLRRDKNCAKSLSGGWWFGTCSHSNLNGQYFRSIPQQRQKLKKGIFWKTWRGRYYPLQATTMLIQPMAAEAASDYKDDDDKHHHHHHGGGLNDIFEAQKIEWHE

[2] = molecular target: T2, ANGPTL4-derived peptide P1 (human); assay: peptide array, immobilised linear 15-mers
T2 construct: linear 15-amino-acid peptide derived from the N-terminal coiled coil domain of human ANGPTL4
T2 peptide: GPVQSKSPRFASWDE
Method: (§1) The ability of selected antibodies of invention, namely MOR022765 and MOR022770, to bind to linear 15-amino-acid peptides derived from the N-terminal coiled coil domain of human ANGPTL4 was tested. The peptides were immobilized on a glass surface, and the ability of MOR022765 and MOR022770 to bind to the immobilized peptides was evaluated using experimental methods optimized for linear peptide epitope mapping at JPT Peptide Technologies (Berlin, Germany).

[3] = molecular target: T3, ANGPTL4-derived peptide P2 (human); assay: peptide array, immobilised linear 15-mers
T3 peptide: QSKSPRFASWDEMNV
Method: as §1

[4] = molecular target: T4, ANGPTL4-derived peptide P3 (human); assay: peptide array, immobilised linear 15-mers
T4 peptide: SPRFASWDEMNVLAH
Method: as §1

[5] = molecular target: T5, ANGPTL4-derived peptide P4 (human); assay: peptide array, immobilised linear 15-mers
T5 peptide: FASWDEMNVLAHGLL
Method: as §1

[6] = molecular target: T6, ANGPTL4-derived peptide P6 (human); assay: peptide array, immobilised linear 15-mers
T6 peptide: MNVLAHGLLQLGQGL
Method: as §1

[7] = molecular target: T7, ANGPTL4-derived peptide P7 (human); assay: peptide array, immobilised linear 15-mers
T7 peptide: LAHGLLQLGQGLREH
Method: as §1

[8] = molecular target: T8, ANGPTL4-derived peptide P10 (human); assay: peptide array, immobilised linear 15-mers
T8 peptide: QGLREHAERTRSQLS
Method: as §1

[9] = molecular target: T9, ANGPTL4-derived peptide P11 (human); assay: peptide array, immobilised linear 15-mers
T9 peptide: REHAERTRSQLSALE
Method: as §1

[10] = molecular target: T10, ANGPTL4-derived peptide P13 (human); assay: peptide array, immobilised linear 15-mers
T10 construct: printed with S where human ANGPTL4 has C
T10 peptide: TRSQLSALERRLSAS
Method: as §1

[11] = molecular target: T11, ANGPTL4-derived peptide P14 (human); assay: peptide array, immobilised linear 15-mers
T11 construct: printed with S where human ANGPTL4 has C
T11 peptide: QLSALERRLSASGSA
Method: as §1

[12] = molecular target: T12, ANGPTL4-derived peptide P16 (human); assay: peptide array, immobilised linear 15-mers
T12 construct: printed with S where human ANGPTL4 has C
T12 peptide: RRLSASGSASQGTEG
Method: as §1

[13] = molecular target: T13, ANGPTL4-derived peptide P17 (human); assay: peptide array, immobilised linear 15-mers
T13 construct: printed with S where human ANGPTL4 has C
T13 peptide: SASGSASQGTEGSTD
Method: as §1

[14] = molecular target: T14, ANGPTL4-derived peptide P19 (human); assay: peptide array, immobilised linear 15-mers
T14 construct: printed with S where human ANGPTL4 has C
T14 peptide: SQGTEGSTDLPLAPE
Method: as §1

[15] = molecular target: T15, ANGPTL4-derived peptide P20 (human); assay: peptide array, immobilised linear 15-mers
T15 peptide: TEGSTDLPLAPESRV
Method: as §1

[16] = molecular target: T16, ANGPTL4-derived peptide P22 (human); assay: peptide array, immobilised linear 15-mers
T16 peptide: LPLAPESRVDPEVLH
Method: as §1

[17] = molecular target: T17, ANGPTL4-derived peptide P24 (human); assay: peptide array, immobilised linear 15-mers
T17 peptide: SRVDPEVLHSLQTQL
Method: as §1

[18] = molecular target: T18, ANGPTL4-derived peptide P27 (human); assay: peptide array, immobilised linear 15-mers
T18 peptide: SLQTQLKAQNSRIQQ
Method: as §1

[19] = molecular target: T19, ANGPTL4-derived peptide P29 (human); assay: peptide array, immobilised linear 15-mers
T19 peptide: KAQNSRIQQLFHKVA
Method: as §1

[20] = molecular target: T20, ANGPTL4-derived peptide P31 (human); assay: peptide array, immobilised linear 15-mers
T20 peptide: IQQLFHKVAQQQRHL
Method: as §1

[21] = molecular target: T21, ANGPTL4-derived peptide P33 (human); assay: peptide array, immobilised linear 15-mers
T21 peptide: KVAQQQRHLEKQHLR
Method: as §1

[22] = molecular target: T22, ANGPTL4-derived peptide P34 (human); assay: peptide array, immobilised linear 15-mers
T22 peptide: QQQRHLEKQHLRIQH
Method: as §1

[23] = molecular target: T23, ANGPTL4-derived peptide P35 (human); assay: peptide array, immobilised linear 15-mers
T23 peptide: RHLEKQHLRIQHLQS
Method: as §1

[24] = molecular target: T24, ANGPTL4-derived peptide P41 (human); assay: peptide array, immobilised linear 15-mers
T24 peptide: LLDHKHLDHEVAKPA
Method: as §1

[25] = molecular target: T1, Human ANGPTL4(26-406)-FLAG-His6-Avi; assay: cell-based or functional assay; remark: listed apart in the source
[26] = molecular target: T1, Human ANGPTL4(26-406)-FLAG-His6-Avi; assay: cell-based or functional assay; remark: listed apart in the source

B1: MOR022765 (antibody, human IgG1, lambda, V domains shown)
VH: EVQLVQSGAEVKKPGESLKISCKGSGYSFSTYWISWVRQMPGKGLEWMGIIDPSSSDTRYSPSFQGQVTISADKSISTAYLQWSSLKASDTAMYYCARVYGYVYMDVWGQGTLVTVSS
VL: SYELTQPLSVSVALGQTARITCSGDNLGKKYAYWYQQKPGQAPVLVIYDKTKRPSGIPERFSGSNSGNTATLTISRAQAGDEADYYCASYDWYSSSYVFGGGTKLTVLG
notes: human IgG1
[1]
  Reversal of human ANGPTL4 inhibition of human LPL EC50: 3 nM
[2]
  binding result: no binding
[3]
  binding result: no binding
[4]
  binding result: no binding
[5]
  binding result: no binding
[6]
  binding result: no binding
[7]
  binding result: no binding
[8]
  binding result: no binding
[9]
  binding result: no binding
[10]
  binding result: no binding
[11]
  binding result: no binding
[12]
  binding result: no binding
[13]
  binding result: no binding
[14]
  binding result: no binding
[15]
  binding result: no binding
[16]
  binding result: no binding
[17]
  binding result: no binding
[18]
  binding result: no binding
[19]
  binding result: no binding
[20]
  binding result: no binding
[21]
  binding result: no binding
[22]
  binding result: no binding
[23]
  binding result: no binding
[24]
  binding result: no binding

B2: MOR021798 (antibody, human IgG1, lambda, V domains shown)
VH: QVQLLESGGGLVQPGGSLRLSCAASGFTFSDYALHWVRQAPGKGLEWVSRISYMGSSTYYADSVKGRFTISRDNSKNTLYLQMNSLRAEDTAVYYCAREHYYSSPMGGVAVDNWGQGTLVTVSS
VL: DIVLTQPPSVSGAPGQRVTISCSGSSSNIGYNTVSWYQQLPGTAPKLLIYSNNIRPSGVPDRFSGSKSGTSASLAITGLQAEDEADYYCSSWDFLIKSLVFGGGTKLTVLG
notes: human IgG1
[25]
  EC50 (read off the curve) [1(C]: ~3 nM

B3: MOR021792 (antibody, human IgG1, lambda, V domains shown)
VH: QVQLLESGGGLVQPGGSLRLSCAASGFTFSDYAMDWVRQAPGKGLEWVSKISYDGSYTYYADSVKGRFTISRDNSKNTLYLQMNSLRAEDTAVYYCARPSMSYYIIPAGFDVWGQGTLVTVSS
VL: DIELTQPPSVSVSPGQTASITCSGDALGVKRASWYQQKPGQAPVLVIYKDNNRPSGIPERFSGSNSGNTATLTISGTQAEDEADYYCSVRTWSMNLYVFGGGTKLTVLG
[26]
  EC50 (read off the curve) [1(A]: 1 to 2 nM

From patent US20160108110A1 (Novartis, published 2016)
